Assay results: the supplement of paper PMC6757056
± gives the standard deviation of the averaged measurements.

B1: library; a variant is named by its letters at N, in order (parent)
chain: GCUGUCACCGGUGUAUUACCCUAGUGGUCGACCGGUCUGAUGAGUCUNNNNNNAGACGAAACAGC

Tests used:
hypoxanthine [1] = variants of: B1; assay: FACS-Seq fitted mean relative fluorescence mCherry/BFP without ligand (log10 relative fluorescence); ligand: hypoxanthine (xanthine aptamer); higher = higher reporter protein expression; settings: HEK293T, ligand present: no
Summary of the method: (§1)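 Lentivirally transduced HEK293T libraries carried an mCherry reporter with the ribozyme switch and an EF1α-BFP marker. Transduced cells were enriched, then incubated with or without ligand for 48 h and sorted into 6 bins by mCherry/BFP. Genomic DNA from each bin was PCR-amplified, barcoded and sequenced on MiSeq. Fluorescence was the fitted normal mean of log10(mCherry/BFP) bin counts, scaled to five spiked-in control ribozymes.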

hypoxanthine [2] = variants of: B1; assay: normalized RNA/DNA level with ligand (relative to sTRSVctl = 100) (log10 (% of sTRSVctl)); ligand: hypoxanthine (xanthine aptamer); higher = less ribozyme self-cleavage, higher mRNA level; settings: ligand concentration (+) RNA-Seq: 5 mM, HEK293T, reporter: mCherry (pCS4076), ligand present: yes
Summary of the method: (§2)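 Total RNA, extracted with EDTA 72 h after HEK293T cells were transfected with 4 µg per 6-well well of reporter-linked ribozyme switch library plasmids, was reverse-transcribed, amplified, barcoded and sequenced. Ligand, if used, was added 1 h before transfection. RNA level was derived from RNA reads divided by DNA reads and normalized to a spiked-in non-cleaving sequence or to the top sequences. This was multiplied by 100 and log10-transformed, with the top set of 25 sequences and a ≥100 DNA read minimum.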

hypoxanthine [3] = variants of: B1; assay: normalized RNA/DNA level without ligand (relative to sTRSVctl = 100) (log10 (% of sTRSVctl)); ligand: hypoxanthine (xanthine aptamer); higher = less ribozyme self-cleavage, higher mRNA level; settings: HEK293T, reporter: mCherry (pCS4076), ligand present: no
Summary of the method: as §2

hypoxanthine [4] = variants of: B1; assay: FACS-Seq fitted mean relative fluorescence mCherry/BFP with ligand (log10 relative fluorescence); ligand: hypoxanthine (xanthine aptamer); ligand concentration (+) FACS-Seq: 5 mM; higher = higher reporter protein expression; settings: HEK293T, ligand present: yes
Summary of the method: as §1

Variant | FACS-Seq fitted mean (log10) (hypoxanthine [1]) | normalized RNA/DNA level with ligand (log10) (hypoxanthine [2]) | normalized RNA/DNA level without ligand (log10) (hypoxanthine [3]) | FACS-Seq fitted mean (log10) (hypoxanthine [4])
UGUGAC | 0.481 ± 0.0063 | 1.94 ± 0.022 | 1.839 ± 0.0072 | 0.42 ± 0.077
GGUAUG | -0.113 ± 0.019 | 1.73 ± 0.052 | 1.32 ± 0.038 | 0.434 ± 0.035
UGUCCC | 0.383 ± 0.13 | 2 ± 0.12 | 1.935 ± 0.013 | 0.29 ± 0.068
UGUCCU | 0.984 ± 0.042 | 1.95 ± 0.091 | 1.93 ± 0.039 | 0.87 ± 0.054
AUACCC | 0.513 ± 0.014 | 1.94 ± 0.043 | 1.89 ± 0.027 | 0.292 ± 0.028
AUAAGA | 0.457 ± 0.047 | 1.9 ± 0.045 | 1.715 ± 0.0051 | 0.556 ± 0.068
AUAAGC | 0.474 ± 0.0089 | 1.918 ± 0.014 | 1.786 ± 0.01 | 0.6615 ± 0.0049
AUAAGG | 0.0649 ± 0.081 | 1.8 ± 0.019 | 1.4 ± 0.038 | 0.345 ± 0.062
AUAAGU | 0.122 ± 0.094 | 1.852 ± 0.0077 | 1.629 ± 0.011 | 0.279 ± 0.058
UUACAC | 0.362 ± 0.025 | 1.92 ± 0.079 | 1.81 ± 0.025 | 0.444 ± 0.051
UUACAU | 0.352 ± 0.018 | 1.93 ± 0.051 | 1.87 ± 0.026 | 0.453 ± 0.11
CUAAAC | 0.4073 ± 0.0033 | 1.89 ± 0.025 | 1.827 ± 0.015 | 0.415 ± 0.1
CGUGCA | 0.438 ± 0.026 | 1.932 ± 0.0054 | 1.72 ± 0.03 | 0.662 ± 0.033
CGUGCU | 0.599 ± 0.1 | 1.909 ± 0.0056 | 1.899 ± 0.0073 | 0.518 ± 0.04
GUAAAU | 0.503 ± 0.07 | 1.88 ± 0.053 | 1.778 ± 0.011 | 0.467 ± 0.11
GUAAAC | 0.572 ± 0.053 | 1.946 ± 0.0036 | 1.74 ± 0.028 | 0.739 ± 0.055
GUAAAG | -0.0437 ± 0.028 | 1.82 ± 0.023 | 1.49 ± 0.045 | -0.15 ± 0.059
GUAAAA | 0.614 ± 0.066 | 1.92 ± 0.06 | 1.815 ± 0.0075 | 0.661 ± 0.033

Variant | FACS-Seq fitted mean (log10) (hypoxanthine [1]) | normalized RNA/DNA level with ligand (log10) (hypoxanthine [2]) | normalized RNA/DNA level without ligand (log10) (hypoxanthine [3]) | FACS-Seq fitted mean (log10) (hypoxanthine [4])
AGUUAA | 0.799 ± 0.015 | 1.92 ± 0.04 | 1.76 ± 0.032 | 0.802 ± 0.094
AGUUAC | 0.497 ± 0.083 | 1.89 ± 0.011 | 1.775 ± 0.016 | 0.655 ± 0.14
AGUUAG | 0.335 ± 0.052 | 1.8 ± 0.054 | 1.44 ± 0.078 | 0.569 ± 0.019
GUAACG | 0.351 ± 0.015 | 1.93 ± 0.048 | 1.59 ± 0.022 | 0.537 ± 0.02
GGUCCA | 0.354 ± 0.029 | 1.96 ± 0.023 | 1.94 ± 0.056 | 0.465 ± 0.041
UUAACG | 0.325 ± 0.025 | 1.94 ± 0.06 | 1.85 ± 0.052 | 0.41 ± 0.025
AGGUUG | 0.0275 ± 0.013 | 1.88 ± 0.021 | 1.48 ± 0.042 | 0.557 ± 0.036
CGUGAA | -0.0193 ± 0.0065 | 1.87 ± 0.051 | 1.6 ± 0.029 | 0.148 ± 0.033
GGUAGU | 0.573 ± 0.11 | 1.9 ± 0.06 | 1.75 ± 0.0084 | 0.507 ± 0.034
GGUAGC | 0.239 ± 0.017 | 1.86 ± 0.054 | 1.35 ± 0.059 | 0.647 ± 0.056
GGUAGG | -0.101 ± 0.028 | 1.69 ± 0.062 | 1.29 ± 0.041 | 0.5153 ± 0.001
AGUCCU | 0.767 ± 0.076 | 1.92 ± 0.085 | 1.895 ± 0.015 | 0.719 ± 0.034
CUACAA | 0.07 ± 0.013 | 1.9 ± 0.013 | 1.79 ± 0.044 | -0.0643 ± 0.025
CGUAUA | 0.422 ± 0.015 | 1.91 ± 0.025 | 1.641 ± 0.007 | 0.566 ± 0.016
UGUGCG | -0.404 ± 0.074 | 1.933 ± 0.015 | 1.684 ± 0.014 | 0.178 ± 0.0062
UUACCG | -0.405 ± 0.057 | 1.899 ± 0.011 | 1.75 ± 0.052 | -0.0713 ± 0.036
UGUAAG | 0.327 ± 0.084 | 1.9 ± 0.033 | 1.67 ± 0.063 | 0.586 ± 0.075
AGUUGC | 0.226 ± 0.043 | 1.91 ± 0.048 | 1.72 ± 0.022 | 0.382 ± 0.02
